In PMC10959496 (European journal of medicinal chemistry, 2023):

Tests used:
[1] = mouse, ip
EphA4 [2] = molecular target: T1, EphA4 (Homo sapiens, UniProt P54764); assay: ELISA measuring EphA4 activation; type: cell-based; settings: HEK-EphA4 cells, ratio of IC50 values
EphA4 [3] = molecular target: T1, EphA4; settings: cited from earlier work

T1 sequence (P54764 20-986, species assumed): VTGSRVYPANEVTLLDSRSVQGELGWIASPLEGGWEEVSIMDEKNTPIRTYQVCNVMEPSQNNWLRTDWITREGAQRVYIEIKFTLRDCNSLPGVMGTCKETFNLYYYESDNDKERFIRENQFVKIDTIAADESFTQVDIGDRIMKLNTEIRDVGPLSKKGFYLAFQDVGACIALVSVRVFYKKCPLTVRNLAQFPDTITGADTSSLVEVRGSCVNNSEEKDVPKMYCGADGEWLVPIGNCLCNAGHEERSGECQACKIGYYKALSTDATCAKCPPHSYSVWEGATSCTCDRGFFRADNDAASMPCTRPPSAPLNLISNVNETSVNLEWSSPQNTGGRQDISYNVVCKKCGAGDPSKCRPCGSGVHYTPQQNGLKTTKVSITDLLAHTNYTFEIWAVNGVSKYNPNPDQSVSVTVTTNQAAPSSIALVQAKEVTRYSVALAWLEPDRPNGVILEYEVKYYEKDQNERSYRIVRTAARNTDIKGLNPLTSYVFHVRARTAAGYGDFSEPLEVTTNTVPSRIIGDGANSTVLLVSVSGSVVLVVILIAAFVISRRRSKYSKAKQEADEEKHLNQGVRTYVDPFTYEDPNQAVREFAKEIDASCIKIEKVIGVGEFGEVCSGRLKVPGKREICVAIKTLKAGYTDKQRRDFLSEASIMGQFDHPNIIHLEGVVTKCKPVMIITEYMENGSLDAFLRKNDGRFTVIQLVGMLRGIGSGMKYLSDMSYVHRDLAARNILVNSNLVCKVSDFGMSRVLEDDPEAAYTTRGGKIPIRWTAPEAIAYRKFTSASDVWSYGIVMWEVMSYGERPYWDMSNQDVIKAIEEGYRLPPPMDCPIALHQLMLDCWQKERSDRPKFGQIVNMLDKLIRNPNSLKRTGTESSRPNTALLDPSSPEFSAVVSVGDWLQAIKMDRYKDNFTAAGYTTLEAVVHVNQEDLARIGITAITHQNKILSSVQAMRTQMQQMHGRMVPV

Substance	Blood concentration at 20 hours after injection ([1]; in vivo, 0.8 mg per mouse, 20 h)	Blood concentration at 48 hours after injection ([1]; in vivo, 0.8 mg per mouse, 48 h)	In vivo half-life after intraperitoneal injection [1]	Potency in cells lower than that of APY-d3 (EphA4 [2])	More potent than APY (EphA4 [3])
APY-d3-PEG4: APY-d3 conjugated to 30 kDa metoxy-PEG-azide through 3 amino-hexanoic acid groups and propargyl-glycine by click chemistry	~ 3 μM	400 nM	> 10 h	~ 4 fold	–
APYCVYRβASWSC-NH2 (disulfide) [APY-d2]	–	–	–	–	50 fold
